Measurements as given in patent publication US12077763B2, “RNA-based control of powdery mildew” (Greenlight Biosciences, Inc., priority 2021, dated 2024).

B1: GS2668 (nucleic acid)
sense: UUCCUAGUCAAACGUGCAUCUAGUGGAGGUGUACAAUUUUCUCGUGAUCCCCUAAACUUAACAAAUGUGCAUUCUCGCAAAUAUGCCGGAUUUGUUAACGAUAAGGCUGUCGGAAUUCUUCCCAUUGAAGGUGGUAAAGGAGGUAUUACUUUGAUCACCAAAAAAACUAAAUUUACCCAAAAACCUUCUAGCGCCAUAUACACAACAGUUUUUGGUGGUAAUAAAACUUCAAGACGGACAUAUAAGGGGGUUGUCAAUACUGUUGUCAAAUCAAGAUAUCGAUCUGAUCUUCGUGCUGAAGCUGUUGCUCGUGCGUCUGCUAUUCGGUACUCGCAAAAACCAAAGGGUGAUCUUCCUAAGAAGAAAUUGCGUGGAUCAAAAGCUAAAAAGG
antisense: CCUUUUUAGCUUUUGAUCCACGCAAUUUCUUCUUAGGAAGAUCACCCUUUGGUUUUUGCGAGUACCGAAUAGCAGACGCACGAGCAACAGCUUCAGCACGAAGAUCAGAUCGAUAUCUUGAUUUGACAACAGUAUUGACAACCCCCUUAUAUGUCCGUCUUGAAGUUUUAUUACCACCAAAAACUGUUGUGUAUAUGGCGCUAGAAGGUUUUUGGGUAAAUUUAGUUUUUUUGGUGAUCAAAGUAAUACCUCCUUUACCACCUUCAAUGGGAAGAAUUCCGACAGCCUUAUCGUUAACAAAUCCGGCAUAUUUGCGAGAAUGCACAUUUGUUAAGUUUAGGGGAUCACGAGAAAAUUGUACACCUCCACUAGAUGCACGUUUGACUAGGAA
B2: GS2679 (nucleic acid)
sense: CCGCCAUACUGGGGGAUUAGAACCUUGUCGCCAACCUUGACAUUACAAGACACUCUGUUUCCAUCUUUGCCAACUGCACCAGGUCCUACAGCUAUAACGUGGGCUUCAUUGAGUUCCUUGACACUUUUUUCGGGAAGAAAAAUGCCACUCGCAGUCUUUGCUUCUGCCUUCACUCGUUGUACAAGAACCCGGUCAAGUAAAGGAGCAAGGGACUUGAUUGAUUUGAGUGUUGAAGCCAUGUUAGAGGAUAACGGACAGUGAAUUAUAAAGACUGUGCAAUAAAAUUGGUUUAAGAGAAAAGAUCUUUGAAGUCGCGUUACGUUAAAGUCGCUAUCUGUU
antisense: AACAGAUAGCGACUUUAACGUAACGCGACUUCAAAGAUCUUUUCUCUUAAACCAAUUUUAUUGCACAGUCUUUAUAAUUCACUGUCCGUUAUCCUCUAACAUGGCUUCAACACUCAAAUCAAUCAAGUCCCUUGCUCCUUUACUUGACCGGGUUCUUGUACAACGAGUGAAGGCAGAAGCAAAGACUGCGAGUGGCAUUUUUCUUCCCGAAAAAAGUGUCAAGGAACUCAAUGAAGCCCACGUUAUAGCUGUAGGACCUGGUGCAGUUGGCAAAGAUGGAAACAGAGUGUCUUGUAAUGUCAAGGUUGGCGACAAGGUUCUAAUCCCCCAGUAUGGCGG
B3: GS2674 (nucleic acid)
sense: UUGAGAAAUUAUUUUCUCUUAUAGCGAAUUUGAUUGAGUAUUUUAUGUGAUAUUCACGUUGUUGGACCCUUAUAGAUCUGGGAUUUAGGGUCUUAGAAGACUCGUCUUAAAGCUUGCCCCAACGUAUGAAGUAUUAAAUACGUUACUUUUGAUAUGAAUAUAUUUUUUAUAUACACGAAUUAAUUUAAUCGAAGAGACCAAAGCCCAUAUCUUCAUCAGACUCUUCUUCUUUUUCUUCUU
antisense: AAGAAGAAAAAGAAGAAGAGUCUGAUGAAGAUAUGGGCUUUGGUCUCUUCGAUUAAAUUAAUUCGUGUAUAUAAAAAAUAUAUUCAUAUCAAAAGUAACGUAUUUAAUACUUCAUACGUUGGGGCAAGCUUUAAGACGAGUCUUCUAAGACCCUAAAUCCCAGAUCUAUAAGGGUCCAACAACGUGAAUAUCACAUAAAAUACUCAAUCAAAUUCGCUAUAAGAGAAAAUAAUUUCUCAA

System: E. necator
Experiment: Leaf disc assay, dry inoculum (settling tower), decrease in disease severity / hyphal growth (Example 2)
Conditions: decrease in disease severity (hyphal growth) relative to untreated control, value ± SE; for % decrease =/− SE TP1: time point 1 (untreated control hyphal growth ≥50%); for % decrease =/− SE TP2: time point 2

Molecule	% decrease =/− SE TP1	% decrease =/− SE TP2
B1	46 ± 3%	38 ± 4%
B2	25 ± 3%	24 ± 5%
B3	17 ± 4%	5 ± 6%
